Data on six molecules can be found in publication PMC11514458.

In data set [1] the target is T1, BCDX2 complex (human, UniProt O15315;O43502;O75771;O43543 1-384;1-376;1-328;1-280).
T1 sequence 1: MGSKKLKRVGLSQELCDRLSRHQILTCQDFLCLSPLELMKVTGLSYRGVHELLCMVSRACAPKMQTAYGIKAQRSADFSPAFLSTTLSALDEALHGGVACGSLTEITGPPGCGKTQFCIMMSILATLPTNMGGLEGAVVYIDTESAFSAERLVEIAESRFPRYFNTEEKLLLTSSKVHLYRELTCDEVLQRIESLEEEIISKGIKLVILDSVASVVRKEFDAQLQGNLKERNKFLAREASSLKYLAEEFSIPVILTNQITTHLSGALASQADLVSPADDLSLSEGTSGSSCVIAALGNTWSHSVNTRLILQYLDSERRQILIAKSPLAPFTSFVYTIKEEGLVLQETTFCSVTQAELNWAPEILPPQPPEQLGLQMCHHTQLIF
T1 sequence 2: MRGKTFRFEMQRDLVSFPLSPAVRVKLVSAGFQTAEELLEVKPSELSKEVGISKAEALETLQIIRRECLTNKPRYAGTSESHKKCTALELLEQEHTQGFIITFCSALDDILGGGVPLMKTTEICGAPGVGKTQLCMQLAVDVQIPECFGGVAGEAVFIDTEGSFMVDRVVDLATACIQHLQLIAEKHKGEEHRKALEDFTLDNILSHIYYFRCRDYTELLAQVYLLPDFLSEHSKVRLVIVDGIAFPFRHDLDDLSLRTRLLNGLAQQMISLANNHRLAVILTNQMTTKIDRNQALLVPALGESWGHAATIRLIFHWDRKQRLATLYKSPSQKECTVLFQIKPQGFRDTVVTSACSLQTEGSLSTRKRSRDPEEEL
T1 sequence 3: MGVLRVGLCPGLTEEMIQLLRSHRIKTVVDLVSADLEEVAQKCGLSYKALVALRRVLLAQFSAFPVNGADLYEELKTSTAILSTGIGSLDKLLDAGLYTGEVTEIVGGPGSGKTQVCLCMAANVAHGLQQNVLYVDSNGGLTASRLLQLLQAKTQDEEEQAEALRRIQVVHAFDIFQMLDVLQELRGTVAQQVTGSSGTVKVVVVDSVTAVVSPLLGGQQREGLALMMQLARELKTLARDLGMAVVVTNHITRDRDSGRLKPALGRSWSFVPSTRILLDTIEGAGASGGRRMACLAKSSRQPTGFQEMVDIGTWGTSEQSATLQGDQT
T1 sequence 4: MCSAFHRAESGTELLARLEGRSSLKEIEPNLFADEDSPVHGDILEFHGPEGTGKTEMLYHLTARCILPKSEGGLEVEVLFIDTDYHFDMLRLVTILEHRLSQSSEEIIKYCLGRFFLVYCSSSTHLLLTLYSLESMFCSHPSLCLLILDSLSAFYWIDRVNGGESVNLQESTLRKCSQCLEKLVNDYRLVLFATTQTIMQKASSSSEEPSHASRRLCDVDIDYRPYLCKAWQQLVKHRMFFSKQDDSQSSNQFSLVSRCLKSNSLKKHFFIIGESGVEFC
Kind of data set: EMSA; significant binding; EMSA: 20 mM Tris-HCl pH 7.5, 2 mM MgCl2, 2 mM ATP, 37 C, 20 nM DNA, glutaraldehyde fixation; stopped-flow: 25 mM Tris-HCl pH 7.5, 5 mM MgCl2, 50 mM KCl, 2 mM ATP, 0.5 mM EDTA, 10% glycerol, 37 C; BLI: 50 mM Tris-HCl pH 7.5, 2 mM ATP, 50 mM KCl, 5 mM MgCl2, 0.05% Tween 20, room temperature. The note with it: protein: recombinant; tags: Strep-tag and His-tag (XRCC2 N-terminal His); copies: 1;1;1;1; label: 5' FITC.

For a further data set, the target named is T2, DX2 complex (human, UniProt O75771;O43543 1-328;1-280).
T2 sequence 1: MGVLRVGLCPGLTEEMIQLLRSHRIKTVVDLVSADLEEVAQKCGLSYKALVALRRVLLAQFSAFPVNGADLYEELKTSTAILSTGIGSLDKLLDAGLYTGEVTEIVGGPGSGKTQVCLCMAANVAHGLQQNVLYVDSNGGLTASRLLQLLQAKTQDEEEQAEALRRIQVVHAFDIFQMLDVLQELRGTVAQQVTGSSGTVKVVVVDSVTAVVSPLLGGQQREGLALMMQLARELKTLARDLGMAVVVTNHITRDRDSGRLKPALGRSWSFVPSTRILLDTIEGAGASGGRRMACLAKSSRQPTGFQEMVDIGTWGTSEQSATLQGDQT
T2 sequence 2: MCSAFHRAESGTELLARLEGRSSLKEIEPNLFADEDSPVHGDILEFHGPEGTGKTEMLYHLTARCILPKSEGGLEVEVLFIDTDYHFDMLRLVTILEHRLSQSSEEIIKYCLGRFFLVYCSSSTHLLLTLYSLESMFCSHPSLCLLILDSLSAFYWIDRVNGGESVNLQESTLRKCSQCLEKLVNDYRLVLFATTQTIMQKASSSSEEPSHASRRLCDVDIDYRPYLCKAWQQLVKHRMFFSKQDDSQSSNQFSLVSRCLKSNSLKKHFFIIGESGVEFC
Kind of data set: EMSA; strong binding; EMSA: 20 mM Tris-HCl pH 7.5, 2 mM MgCl2, 2 mM ATP, 37 C, 20 nM DNA, glutaraldehyde fixation; stopped-flow: 25 mM Tris-HCl pH 7.5, 5 mM MgCl2, 50 mM KCl, 2 mM ATP, 0.5 mM EDTA, 10% glycerol, 37 C; BLI: 50 mM Tris-HCl pH 7.5, 2 mM ATP, 50 mM KCl, 5 mM MgCl2, 0.05% Tween 20, room temperature. The note with it: protein: recombinant; tags: His-tag; copies: 1;1; label: internal FITC; reversed fork of 4 strands with ssDNA overhang.

Data set [2] concerns the target T1, BCDX2 complex. The description is as above. The note with it: protein: recombinant; tags: Strep-tag and His-tag (XRCC2 N-terminal His); copies: 1;1;1;1; label: internal FITC; reversed fork of 4 strands with ssDNA overhang.
The target in the next data set is T3, DX2(R159A) (UniProt O75771;O43543 1-328;1-280, R159A).
T3 sequence 1: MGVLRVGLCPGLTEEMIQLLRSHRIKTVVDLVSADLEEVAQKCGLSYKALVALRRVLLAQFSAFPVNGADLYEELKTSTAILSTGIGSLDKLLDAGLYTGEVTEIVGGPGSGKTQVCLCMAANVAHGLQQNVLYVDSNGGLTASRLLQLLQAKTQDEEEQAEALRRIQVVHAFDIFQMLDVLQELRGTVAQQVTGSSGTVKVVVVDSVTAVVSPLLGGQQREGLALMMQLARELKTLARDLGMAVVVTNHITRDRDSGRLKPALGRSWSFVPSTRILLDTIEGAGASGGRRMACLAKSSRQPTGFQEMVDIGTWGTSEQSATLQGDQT
T3 sequence 2: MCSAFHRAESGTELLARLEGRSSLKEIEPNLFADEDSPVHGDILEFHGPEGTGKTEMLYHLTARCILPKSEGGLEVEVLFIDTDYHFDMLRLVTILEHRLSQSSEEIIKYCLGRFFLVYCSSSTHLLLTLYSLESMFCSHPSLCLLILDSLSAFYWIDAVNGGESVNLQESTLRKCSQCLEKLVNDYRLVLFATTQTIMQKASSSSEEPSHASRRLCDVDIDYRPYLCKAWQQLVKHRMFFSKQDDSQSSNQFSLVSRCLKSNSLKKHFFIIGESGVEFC
Kind of data set: EMSA; not significantly affected; EMSA: 20 mM Tris-HCl pH 7.5, 2 mM MgCl2, 2 mM ATP, 37 C, 20 nM DNA, glutaraldehyde fixation; stopped-flow: 25 mM Tris-HCl pH 7.5, 5 mM MgCl2, 50 mM KCl, 2 mM ATP, 0.5 mM EDTA, 10% glycerol, 37 C; BLI: 50 mM Tris-HCl pH 7.5, 2 mM ATP, 50 mM KCl, 5 mM MgCl2, 0.05% Tween 20, room temperature. The note with it: protein: recombinant; copies: 1;1; label: internal FITC; reversed fork of 4 strands with ssDNA overhang.

For another data set, the target named is T4, D(R266A)X2 (UniProt O75771;O43543 1-328;1-280, R266A).
T4 sequence 1: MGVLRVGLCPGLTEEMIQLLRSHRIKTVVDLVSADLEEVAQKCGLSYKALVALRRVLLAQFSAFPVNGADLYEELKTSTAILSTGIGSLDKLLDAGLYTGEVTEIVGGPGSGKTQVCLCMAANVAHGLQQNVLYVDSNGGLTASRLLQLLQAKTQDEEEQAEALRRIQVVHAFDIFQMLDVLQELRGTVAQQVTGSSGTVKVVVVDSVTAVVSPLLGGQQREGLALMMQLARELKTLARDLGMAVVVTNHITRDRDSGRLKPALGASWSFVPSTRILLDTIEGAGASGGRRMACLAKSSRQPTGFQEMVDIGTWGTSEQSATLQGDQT
T4 sequence 2: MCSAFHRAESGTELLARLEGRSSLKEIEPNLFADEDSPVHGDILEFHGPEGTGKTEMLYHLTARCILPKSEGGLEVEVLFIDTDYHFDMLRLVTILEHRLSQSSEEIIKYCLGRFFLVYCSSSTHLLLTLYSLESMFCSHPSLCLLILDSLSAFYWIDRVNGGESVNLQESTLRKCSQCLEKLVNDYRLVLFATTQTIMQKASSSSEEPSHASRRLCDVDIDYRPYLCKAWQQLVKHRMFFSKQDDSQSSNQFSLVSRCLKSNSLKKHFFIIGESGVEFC
Described as above. The note with it: protein: recombinant; copies: 1;1; label: internal FITC; reversed fork of 4 strands with ssDNA overhang.

In data set [3] the target is T5, RAD51;BCDX2 complex (human?;human, UniProt Q06609;O15315;O43502;O75771;O43543 1-339;1-384;1-376;1-328;1-280, |). Kind of data set: BLI; BCDX2 facilitates RAD51 binding; EMSA: 20 mM Tris-HCl pH 7.5, 2 mM MgCl2, 2 mM ATP, 37 C, 20 nM DNA, glutaraldehyde fixation; stopped-flow: 25 mM Tris-HCl pH 7.5, 5 mM MgCl2, 50 mM KCl, 2 mM ATP, 0.5 mM EDTA, 10% glycerol, 37 C; BLI: 50 mM Tris-HCl pH 7.5, 2 mM ATP, 50 mM KCl, 5 mM MgCl2, 0.05% Tween 20, room temperature. The note with it: protein: recombinant;recombinant; tags: ;Strep-tag and His-tag (XRCC2 N-terminal His); copies: 1;1;1;1;1; label: 5' biotin.

The target of data set [4] is T1, BCDX2 complex. The data set is described as follows: EMSA; efficient binding; EMSA: 20 mM Tris-HCl pH 7.5, 2 mM MgCl2, 2 mM ATP, 37 C, 20 nM DNA, glutaraldehyde fixation; stopped-flow: 25 mM Tris-HCl pH 7.5, 5 mM MgCl2, 50 mM KCl, 2 mM ATP, 0.5 mM EDTA, 10% glycerol, 37 C; BLI: 50 mM Tris-HCl pH 7.5, 2 mM ATP, 50 mM KCl, 5 mM MgCl2, 0.05% Tween 20, room temperature. The note with it: protein: recombinant; tags: Strep-tag and His-tag (XRCC2 N-terminal His); copies: 1;1;1;1; label: 5' FITC.

For data set [5], the target named is T1, BCDX2 complex. The data set is described as follows: EMSA; 10 nt sufficient within reversed fork; EMSA: 20 mM Tris-HCl pH 7.5, 2 mM MgCl2, 2 mM ATP, 37 C, 20 nM DNA, glutaraldehyde fixation; stopped-flow: 25 mM Tris-HCl pH 7.5, 5 mM MgCl2, 50 mM KCl, 2 mM ATP, 0.5 mM EDTA, 10% glycerol, 37 C; BLI: 50 mM Tris-HCl pH 7.5, 2 mM ATP, 50 mM KCl, 5 mM MgCl2, 0.05% Tween 20, room temperature. The note with it: protein: recombinant; tags: Strep-tag and His-tag (XRCC2 N-terminal His); copies: 1;1;1;1; label: 3' Cy3 on strand 1; reversed fork of 4 strands, 3' ssDNA tail 10 nt.

In data set [6] the target is T5, RAD51;BCDX2 complex. Kind of data set: BLI; enhanced RAD51 loading; EMSA: 20 mM Tris-HCl pH 7.5, 2 mM MgCl2, 2 mM ATP, 37 C, 20 nM DNA, glutaraldehyde fixation; stopped-flow: 25 mM Tris-HCl pH 7.5, 5 mM MgCl2, 50 mM KCl, 2 mM ATP, 0.5 mM EDTA, 10% glycerol, 37 C; BLI: 50 mM Tris-HCl pH 7.5, 2 mM ATP, 50 mM KCl, 5 mM MgCl2, 0.05% Tween 20, room temperature. The note with it: protein: recombinant;recombinant; tags: ;Strep-tag and His-tag (XRCC2 N-terminal His); copies: 1;1;1;1;1; label: 3' Cy3 on strand 1; 5' biotin on strand 4; reversed fork of 4 strands, 3' ssDNA tail.

T5 sequence (Q06609 whole entry, one chain of several): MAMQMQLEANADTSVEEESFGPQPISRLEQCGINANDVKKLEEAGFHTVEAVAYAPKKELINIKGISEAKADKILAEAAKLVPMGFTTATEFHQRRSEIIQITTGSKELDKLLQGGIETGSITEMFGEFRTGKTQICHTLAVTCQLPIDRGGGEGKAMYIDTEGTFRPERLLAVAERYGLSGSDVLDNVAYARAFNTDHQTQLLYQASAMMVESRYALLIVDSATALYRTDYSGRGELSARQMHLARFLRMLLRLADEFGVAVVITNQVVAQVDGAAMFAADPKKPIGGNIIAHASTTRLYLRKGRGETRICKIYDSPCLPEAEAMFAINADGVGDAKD

Consider AGAAGAGAGCAGAGG (ssDNA) [ssDNA 15mer], for which, in the data set with BCDX2 complex [1], the binding result is “binds”.

B1: RVF1 (mixed)
DNA 1: TGCCGAATTCTACCAGTGCCAGTGATGGACATCTTTGCCCACGTTGACCC
DNA 2: TGGGTCAACGTGGGCAAAGATGTCCTAGCAATGTAATCGTCTATGACGTT
DNA 3: TCGGATCCTCTAGACAGCTCCATGATCACTGGCACTGGTAGAATTCGGC
DNA 4: CAACGTCATAGACGATTACATTGCT
modifications: internal FITC at Z after nt 20 of strand 3
Take B1: the binding result with DX2 complex, with BCDX2 complex [2], in the data set with DX2(R159A) and with D(R266A)X2 was “binds” each time.

For TTTTTTTTTTTTTTT (ssDNA) [biotin-dT15], the binding result with RAD51;BCDX2 complex [3] is “binds”.

For the molecule GAATGTGTGTCTCAATC (ssDNA) [ssDNA 20mer], in the data set with BCDX2 complex [4], the binding result is reported as “binds”.

B2: 10ntRVF (mixed)
DNA 1: GACGCTGCCGAATTCTACCAGTGCCTTGCTATTTTTTTTTT
DNA 2: ATCTGTTGTAATCGTCAAGCTTTATGCCGTT
DNA 3: GAACGGCATAAAGCTTGACGATTACAACAGATCATGGAGCTGTCTAGAGGATCCGACTATCGA
DNA 4: ATCGATAGTCGGATCCTCTAGACAGCTCCATGTAGCAAGGCACTGGTAGAATTCGGCAGCGT
For the molecule B2, the binding result in the data set with BCDX2 complex [5] is reported as “binds”.

B3: RVF25ssDNA (mixed)
DNA 1: GACGCTGCCGAATTCTACCAGTGCCTTGCTATTTTTTTTTTTTTTTTTTTTTTTTTTTTTT
DNA 2: ATCTGTTGTAATCGTCAAGCTTTATGCCGTT
DNA 3: GAACGGCATAAAGCTTGACGATTACAACAGATCATGGAGCTGTCTAGAGGATCCGACTATCGA
DNA 4: ATCGATAGTCGGATCCTCTAGACAGCTCCATGTAGCAAGGCACTGGTAGAATTCGGCAGCGT
For B3, in the data set with RAD51;BCDX2 complex [6], the binding result is recorded as “binds”.
